This note sets out measurements from patent US20230220053A1 (published 2023).

Like-named read-outs stand apart in the source and are kept apart here.

For test [1], the target named is T1, S1 protein of SARS-CoV-2 (recombinant, construct not stated) (SARS-CoV-2, UniProt P0DTC2 16-685).
Test [2] deals with T1, S1 protein of SARS-CoV-2 (recombinant, …). In words: ELISA, S1 coated, IgG1 titrated, anti-human Fc HRP. (In general: ELISA stands for enzyme-linked immunosorbent assay.)
Test [3] addresses S protein of SARS-COV-2 (Sino Biologics) (SARS-CoV-2, UniProt P0DTC2 16-1213). In words: ELISA, S protein (Sino Biologics) coated, anti-human Fc HRP.
Test [4] concerns the target T1, S1 protein of SARS-CoV-2 (recombinant, …). This is another data set of the same source.
Test [5] deals with T2, RBD of SARS-CoV-2 spike protein S1 (recombinant, construct not stated) (SARS-CoV-2, UniProt P0DTC2 328-533).
T2 construct: also called SARS-COV-2, RBD; RBD-AF647
In words: ELISA, RBD coated, IgG1 titrated, anti-human Fc HRP.

For test [6], the target named is T3, S1 protein of SARS-COV (ACRO Biosciences) (SARS-COV, UniProt P59594 14-667).
T3 construct: domain: S1
In words: ELISA, SARS-COV S1 coated, IgG titrated, anti-human Fc HRP.

The target of test [7] is T4, RBD of SARS-COV (ACRO Biosciences) (SARS-COV, UniProt P59594 306-527).
T4 construct: domain: RBD; also called RBD-SARS; SARS-COV, RBD
In words: ELISA, SARS-COV RBD coated, IgG titrated, anti-human Fc HRP.

In test [8] the target is T2, RBD of SARS-CoV-2 spike protein S1 …. In words: ELISA, RBD coated, scFv titrated, anti-Flag HRP.
For test [9], the target named is T1, S1 protein of SARS-CoV-2 (recombinant, …). The source holds these as a separate data set.
Test [10] shares this target. Description: ELISA, S1 coated, scFv titrated, anti-Flag HRP.
In test [11] the target is T5, S1-Fc (SARS-CoV-2 S1 protein, Fc fusion) (SARS-CoV-2, UniProt P0DTC2 16-685). Description: SPR (Biacore T200), S1 captured on anti-human Fc chip, scFv injected. (In SPR one partner is held on a chip, and binding of the other changes the refractive index at the surface.)
For test [12], the target named is T6, SARS-CoV-2-RBD (328-533)-Fc (SARS-CoV-2).
T6 construct: also called RBD-Fc
In words: SPR (Biacore T200), RBD captured on anti-human Fc chip, scFv injected.

Test [13] deals with T2, RBD of SARS-CoV-2 spike protein S1 ….
For test [14], the target named is T1, S1 protein of SARS-CoV-2 (recombinant, …). This is another data set of the same source.
Test [15] addresses T5, S1-Fc (SARS-CoV-2 S1 protein, Fc fusion). Description: SPR (Biacore T200), S1 captured on anti-human Fc chip, scFv injected. The source holds these as a separate data set.
For test [16], the target named is T6, SARS-CoV-2-RBD (328-533)-Fc. In words: SPR (Biacore T200), RBD captured on anti-human Fc chip, scFv injected. This is another data set of the same source.
The target of test [17] is T2, RBD of SARS-CoV-2 spike protein S1 …. Description: SPR (Biacore T200), IgG captured on protein A chip, RBD injected.
Test [18] concerns the target T1, S1 protein of SARS-CoV-2 (recombinant, …). In words: SPR (Biacore T200), IgG captured on protein A chip, S1 injected.
The target in test [19] is T4, RBD of SARS-COV (ACRO Biosciences). In words: ELISA, SARS-COV RBD (ACRO) coated, anti-human Fc HRP.
The target of test [20] is T3, S1 protein of SARS-COV (ACRO …). In words: ELISA, SARS-COV S1 (ACRO) coated, anti-human Fc HRP.
Test [21] shares this target. Description: SPR (Biacore T200), IgG captured on protein A chip, SARS-COV S1 injected.
Test [22] deals with T4, RBD of SARS-COV (ACRO Biosciences). Description: SPR (Biacore T200), IgG captured on protein A chip, SARS-COV RBD injected.
Test [23] deals with SARS-CoV-2-RBD (328-533)-His (SARS-CoV-2, UniProt P0DTC2 328-533).
Test [24] addresses HIS tagged S1 of SARS-CoV-2 (SARS-CoV-2, UniProt P0DTC2 16-685).

B1: 2020EP54-E12 IgG1 (antibody, V domains shown)
VH: EVQLVESGGGLVQPGGSLRLSCAVTGFIVSSNYMNWVRQAPGKGLEWVSVIYSGGTTYYADSVKGRFTISRDKSKNTLYLQMNNLRAEDTAMYYCATLGNDYGDYGTDYWGQGTLVTVSS
VL: QLVLTQPPSVSVSPGQTASISCSGDRLGQKYTSWYQQRPGQSPVLIMYQDNKRPSGIPERFSGSNSGNTATLTISGIQSMDEADYYCQVWDSGSDHAVFGGGTQLTVL
notes: also called 2020EP054-E12; EP054-E12, IgG1
With B1, the IC50 (in general, the concentration that gives 50% inhibition) is 1.9 nM in test [1] and 3.79 nM in [4]. In addition, the EC50 – broadly, the midpoint of the concentration-response curve – is 0.103 nM in [2], 0.462 nM in test [3] and 0.053 nM in [5]. In addition, the binding result in test [6] and in test [7] was “no binding (tested: 200 nM (highest concentration tested))” each time.

B2: 2020EP54-E10 scFv (scFv)
scFv: QVQLVQSGAEVRKPGSSVKVSCKASGGTFSSFAISWVRQAPGQGLEWMGGIIPIFDTATYAQNFQGRVRMTADESTNTAYMELSSLTSEDTAVYYCARSTSYYDSRGDYKVGDFDYWGQGTLVTVSSGGGGSGGGGSGGGGSAIRMTQSPSSLSASVGDRVTITCQASQDISNYLNWYQQKPGKAPKLLIYDASNLETGVPSRFSGSGSGTDFTFTISSLQPEDIATYYCQQYDNLPLTFGGGTKVEIK
notes: also called 2020EP054-E10
In the case of B2, the EC50 was 0.16 nM in test [8] and 0.154 nM in test [10]. Besides, the IC50 in test [9] is 4.69 nM; in test [13], less than 1 nM; in [14] it was 4.94 nM. Moreover, the dissociation constant (Kd) – broadly, the constant that tells how readily two partners part at equilibrium – in test [11] was 3.35 nM; in test [12], 1.9 nM; in [15] it was 3.35 nM; in test [16], 1.89 nM. Moreover, the koff (as a rule, the first-order rate constant of dissociation) in [11] came out at 0.00106 s⁻¹; in [12], 0.000906 s⁻¹; in test [15], 0.00106 s⁻¹; in [16] it was 0.000906 s⁻¹. The kon (usually a measure of how fast the partners come together) in test [11] is 316000 M⁻¹ s⁻¹; in test [12] it was 477000 M⁻¹ s⁻¹; in test [15] it was 316000 M⁻¹ s⁻¹; in test [16] it was 477000 M⁻¹ s⁻¹.

B3: 2020EP54-E12 scFv (scFv)
scFv: EVQLVESGGGLVQPGGSLRLSCAVTGFIVSSNYMNWVRQAPGKGLEWVSVIYSGGTTYYADSVKGRFTISRDKSKNTLYLQMNNLRAEDTAMYYCATLGNDYGDYGTDYWGQGTLVTVSSGGGGSGGGGSGGGGSQLVLTQPPSVSVSPGQTASISCSGDRLGQKYTSWYQQRPGQSPVLIMYQDNKRPSGIPERFSGSNSGNTATLTISGIQSMDEADYYCQVWDSGSDHAVFGGGTQLTVL
notes: also called 2020EP054-E12
Regarding B3, the figures for the concentration giving a half-maximal response (EC50) in test [8] and in test [10] were 0.486 nM and 0.737 nM, respectively. Further, the IC50 in test [9] is 6.58 nM; in [13], 6.69 nM; in test [14], 8.57 nM. In addition, the Kd was 13.2 nM in [11] and 9.61 nM in [16]. Moreover, the dissociation rate constant (koff) in test [11] stood at 0.000687 s⁻¹; in test [16], 0.000469 s⁻¹. The figures for the kon in test [11] and in test [16] were 51900 M⁻¹ s⁻¹ and 48900 M⁻¹ s⁻¹, respectively.

B4: 2020EP54-B12 IgG1 (antibody, V domains shown)
VH: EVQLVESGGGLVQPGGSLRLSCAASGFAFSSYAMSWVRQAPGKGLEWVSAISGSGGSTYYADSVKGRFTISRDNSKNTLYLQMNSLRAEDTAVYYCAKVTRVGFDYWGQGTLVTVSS
VL: SYELTQPPSVSVAPGKTARITCGGNNIGSKSVHWYQQKPGQAPVLVIYYDSDRPSGIPERFSGSNSGNTATLTISRVEAEDEADYYCQVWDSSSDVVFGGGTKLTVL
notes: also called 2020EP054-B12; EP054-B12, IgG1
Consider B4, for which the Kd in [17] came out at 6.4 nM; in [18] it was 61.9 nM. The koff is 0.00578 s⁻¹ in test [17] and 0.00507 s⁻¹ in test [18]. In addition, the values for the kon in test [17] and in [18] were 903000 M⁻¹ s⁻¹ and 82000 M⁻¹ s⁻¹, respectively. In addition, the values for the half-maximal effective concentration (EC50) in test [2], in test [3] and in [5] were 0.045 nM, 0.032 nM and 0.045 nM, respectively. For the same molecule, the binding result in [6] and in test [7] was “no binding (tested: 200 nM (highest concentration tested))” in each case.

B5: 2020EP54-E10 IgG1 (antibody, V domains shown)
VH: QVQLVQSGAEVRKPGSSVKVSCKASGGTFSSFAISWVRQAPGQGLEWMGGIIPIFDTATYAQNFQGRVRMTADESTNTAYMELSSLTSEDTAVYYCARSTSYYDSRGDYKVGDFDYWGQGTLVTVSS
VL: not shown
notes: also called 2020EP054-E10
Take B5: the IC50 in [1] is 2.71 nM; in test [4], 0.774 nM. Further, the EC50 in test [19] was determined as 0.035 nM; in test [2], 0.084 nM; in test [20], 0.027 nM; in test [3], 0.0846 nM; in test [5] it was 0.08 nM. For the same molecule, the dissociation constant (Kd) in [17] was found to be 0.131 nM; in test [18], 1.15 nM; in test [21], 57.1 nM; in [22] it was 3.69 nM; in test [23], 0.554 nM; in test [24], 2.3 nM. In addition, the koff in [17] was found to be 0.00032 s⁻¹; in [18], 0.000292 s⁻¹; in test [21], 0.00433 s⁻¹; in test [22] it was 0.00675 s⁻¹; in [23], 0.000807 s⁻¹; in test [24], 0.000498 s⁻¹. Besides, the kon in test [17] amounted to 2.43e+06 M⁻¹ s⁻¹; in test [18], 254000 M⁻¹ s⁻¹; in [21], 75800 M⁻¹ s⁻¹; in [22], 1.83e+06 M⁻¹ s⁻¹; in [23] it was 1.46e+06 M⁻¹ s⁻¹; in test [24] it was 217000 M⁻¹ s⁻¹.

B6: 2020EP54-H01 IgG1 (antibody, V domains shown)
VH: QVQLVESGGGVVQPGRSLRLSCAASGFTFSSYGMHWVRQAPGKGLEWVAVISYDGSNKYYADSVKGRFTISRDNSKNTLYLQMNSLRAEDTAVYYCAKGRGWYLDYWGQGTLVTVSS
VL: NFMLTQPPSVSVSPGQTASITCSGDKLGDKYACWYQQKPGQSPVLVMYEDYKRPSGIPARFSGSNSGNTATLTISRVEGGDEGDYYCQVWDSRGPEVIFGGGTKLTVL
notes: also called 2020EP054-H01; EP054-H01, IgG1
For the molecule B6, the values for the EC50 in test [2], in [3] and in test [5] were 0.101 nM, 11.5 nM and 0.101 nM, respectively. The binding result in test [6] and in [7] was “no binding (tested: 200 nM (highest concentration tested))” each time.
